Results: article doi:10.1101/2020.09.10.291773 (bioRxiv, 2020)

Biological target: T1, HY5-S36A-GFP (Arabidopsis, UniProt O24646 1-168, S36A)
T1 sequence (looked up): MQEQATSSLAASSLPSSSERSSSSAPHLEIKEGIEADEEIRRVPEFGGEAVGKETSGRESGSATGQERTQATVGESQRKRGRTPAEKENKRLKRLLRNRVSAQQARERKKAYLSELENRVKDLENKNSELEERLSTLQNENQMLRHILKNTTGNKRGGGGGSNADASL
Assay: co-IP

fold co-immunoprecipitated COP1 against the HY5-S36D-GFP line: 4 times
B1: COP1 (CONSTITUTIVE PHOTOMORPHOGENIC1), endogenous (natural protein, Arabidopsis (endogenous in seedlings), UniProt P43254 1-675, looked up)
chain: MEEISTDPVVPAVKPDPRTSSVGEGANRHENDDGGSGGSEIGAPDLDKDLLCPICMQIIKDAFLTACGHSFCYMCIITHLRNKSDCPCCSQHLTNNQLYPNFLLDKLLKKTSARHVSKTASPLDQFREALQRGCDVSIKEVDNLLTLLAERKRKMEQEEAERNMQILLDFLHCLRKQKVDELNEVQTDLQYIKEDINAVERHRIDLYRARDRYSVKLRMLGDDPSTRNAWPHEKNQIGFNSNSLSIRGGNFVGNYQNKKVEGKAQGSSHGLPKKDALSGSDSQSLNQSTVSMARKKRIHAQFNDLQECYLQKRRQLADQPNSKQENDKSVVRREGYSNGLADFQSVLTTFTRYSRLRVIAEIRHGDIFHSANIVSSIEFDRDDELFATAGVSRCIKVFDFSSVVNEPADMQCPIVEMSTRSKLSCLSWNKHEKNHIASSDYEGIVTVWDVTTRQSLMEYEEHEKRAWSVDFSRTEPSMLVSGSDDCKVKVWCTRQEASVINIDMKANICCVKYNPGSSNYIAVGSADHHIHYYDLRNISQPLHVFSGHKKAVSYVKFLSNNELASASTDSTLRLWDVKDNLPVRTFRGHTNEKNFVGLTVNSEYLACGSETNEVYVYHKEITRPVTSHRFGSPDMDDAEEEAGSYFISAVCWKSDSPTMLTANSQGTIKVLVLAA
